B1: TPR t1 (parent)
chain: GACCAAUCUGCCCUCAGAGCUCGAGAACAUCUUCGGAUGCAGAGGAGGCAGGCUUCGGUGGCGCGAUAGCGCCAACGUCCUCAACCUCCAAUGCAUCCCACCACAUGAUGAUGCCUGAAGAGCCUUGGUUUUUUG

Variants of: B1
Experiment: polymerase ribozyme fitness, log enrichment relative to wild type (log ratio); higher = more active; in vitro selection for triplet polymerase activity
In short: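 Mutant libraries were PCR-built and transcribed for each subunit of a heterodimeric triplet polymerase ribozyme and selected for one round in triplicate at −7 °C, frozen, before gel excision of extended constructs and streptavidin-bead capture. Input and output libraries were Illumina-sequenced, keeping genotypes with ≥10 input reads and ≥1 read per output. Fitness is a logarithmic ratio of genotype to wild-type enrichment, in base 2, using inverse-variance-weighted replicate averages.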

Variant | polymerase ribozyme fitness (log ratio)
C40U G51A G71C | -4.85
G42U G57U C82U | -1.58
G47U C70U | -1.87
U38G G52C U55G A74U | -2.31
C11U G44A | -1.49
U78C U87G | 0.287
G58C C102A G120A | -2.34
C88U C98A | -4.94
U9G A43U G52U C72U C82A | -3
G47U U126G | -3.77
C31U U54G U59C A103C A111C | -5.45
U38G C97U | -4.33
C49U C62A | -2.25
G36A G58C U116G | -3.49
C82A A118G A121G | 1.48
C40G G71A | -1.91
C28A C86U A111U | -2.22
G39A G61A C89A G120C | -1.19
A90U A103U U106C | -5.93
C11G G44A A68G | -4.14
G61U G117U | -1.34

Variant | polymerase ribozyme fitness (log ratio)
C3U A29C G61U | -2.81
U9C C80U A91G | -0.111
C4A G93C A111U | -4.69
C3G A46U | -2.71
G39A C72U C99U G120A U126C | -3.09
G60U C82U G110U | -1.72
U55A A84C | 0.0901
C11A C56A G69A A84G A121C | -4.27
G69A U81A | -3.16
G58A G120U | -0.283
U21G C88G U96A C102U | -5.77
G10A C49A | 0.131
U87C A90C C115A | -0.371
A5C C34U G63C U129G | -4.67
G10C C73G C85G | -2.53
U7A C12G C40G U106C C114G | -5.02
C49U A74C | -0.435
C114A A119U | -3.28
A6G U30C G63A A111U G127C | -5.37
C8A G52A C98A | -4.9
U14G A68G U112G | -5.15

Variant | polymerase ribozyme fitness (log ratio)
G17C C80G C124A | -8.59
C15A U116A | -4.69
C28U | -1.69
A41C C70A U78C G128U U131C | -4.08
C8G C13U G45C A84C | 0.0875
C64U U133A | -0.0271
C70A U106C U129A | -2.95
U9G C70A | -1.08
C70G G127C | -3.14
G63U C85U | -2.96
U9A C12U A27C C53U G63A A83C | -4.89
U78A A95G C102A | -2.41
C12G A119U | 0.00185
C89A A100U C115G | -5.22
C22G U78G | -4.47
C11A A18U A26G G39U G42A G45A G60A U133A | -6.17
C8A C53U U55A G77A C89A U129C | -3.11
A27U G71U G93U | -5.1
C49U G120U | -0.184
C98G U116A C124G | -4.52
C101A G127C | -1.82

Variant | polymerase ribozyme fitness (log ratio)
A5C C11G G44A C56A U112A | -0.571
C28A A50G C62U G65U G69U U112A | -3.65
C99A C123A | -5.64
A16U C22U C62U U78C U92G G120A C123A | -6.53
C12U A83U | 0.364
C8U C88A A90U | -0.855
A27C C28G | -4
U7G G120A | 1.99
C20U C56A G71U A118U G120U | -2.27
C12U C15G G39A C56A G120A | 0.312
C79G U92C | -3.03
C13G C22U G39U C53G | -5.48
C3A A6G C13U C15G U59C | -3.21
C8A C89A G122U | -0.485
C40U C70U A84G | -2.34
U59C A83U | -0.619
C8A U9G A16G A24G G39C G60A C64A U92C G110U G113U A121U C123G U126G | -6.69
C8U C13A G44U C72A C79U C85A | -3.38
A5U C70G | -2.83
C53G C56G | -0.593
C20U C40G G63C | -4.09

— the RNAGym collection of RNA variant scans (doi:10.1073/pnas.2313332121)
